# Molecular target: Leishmania RNA virus 1 isolate LRV1-4 major capsid protein (Leishmania RNA virus 1 (isolate LRV1-4, from Leishmania guyanensis strain M5313))
# Experiment: cryo-EM structure; single-particle reconstruction of purified LRV1 virus-like particles, 0.16 mg/ml, in 20 mM sodium phosphate pH 7.4, 300 mM NaCl, 5 mM beta-mercaptoethanol; icosahedral symmetry; 3.65 Å
substance,measurement,value
Leishmania RNA virus 1 isolate LRV1-4 major capsid protein (natural protein),stoichiometry N,120 copies

# — article PMC7925086
